{
  "source": "paper PMC3538135",
  "target": "CD4 (recombinant CD4 antigen) (UniProt P01730 26-396)",
  "experiment": "ellipsometry",
  "data": [
    {"binder": "GGGGTTGGTTGTGTTGGGTGTTGTGTCCAACCCCC (ssDNA, 5' thiol-C6)", "note": "[IFN-gamma aptamer (nonsense control)]", "values": [
      {"measurement": "binding result", "value": "no binding"}
    ]}
  ]
}
